Results published in patent US20230137139A1, “BIOSYNTHESIS OF CANNABINOIDS AND C[…]” (priority 2020, published 2023).
Where a chain is given by its changes, count along the chain named.

Assays:
Assay type in all cases: cell-based, S. cerevisiae
[1] = test system: CBCA, THCA, and CBDA production; CBGA residual substrate; assay: In vivo TS activity assay, Example 3 metagenomic CBCAS screen, cultures fed olivetolic acid
Procedure: An assay to detect TS activity was conducted as follows: each thawed glycerol stock of candidate CBCAS transformants was stamped into a well of YEP+4% dextrose media. Samples were incubated at 30° C. in a shaking incubator for 2 days. A portion of each of the resulting cultures was stamped into a well of YEP+4% galactose+1 mM olivetolic acid (FIG. 1 Structure 6a). Samples were incubated at 20° C. and shaken in a shaking incubator for 4 days. Every 24 hours during those 4 days, 2% galactose and 1 mM olivetolic acid were spiked into the cultures. Sodium citrate buffer adjusted to pH 5.5 was added to each well at a final concentration of 100 mM. Samples were incubated at 20° C. and shaken in a shaking incubator for 2 days. A portion of each of the resulting production cultures was stamped into a well of phosphate buffered saline (PBS). Optical measurements were taken on a plate reader, with absorbance measured at 600 nm and fluorescence at 528 nm with 485 nm excitation. Samples were incubated at 30° C. in a shaking incubator for 2 days. 100% methanol was stamped into the production cultures in half-height deepwell plates. Plates were heat sealed and frozen. Samples were then thawed for 30 min and spun down at 4° C. A portion of the supernatant was stamped into half-area 96 well plates. CBCA, THCA, and CBDA production in the samples was quantified via liquid chromatography-mass spectrometry (LC-MS).
To explore whether other putative CBCASs may exist in the broader metagenome, a library of 1072 candidate CBCAS genes was designed using the A. niger CBCAS enzyme identified in Example 1 as a reference. Protein sequences were recoded in silico for expression in S. cerevisiae and synthesized in the integrative yeast expression vector shown in FIG. 5. Each candidate enzyme expression construct was transformed into an S. cerevisiae CEN.PK strain that also expressed a prenyltransferase enzyme capable of catalyzing reaction R^4 in FIG. 2. Strain t616313, expressing GFP, was included in the library screen as a negative control for enzyme activity. Strain t807925, expressing the A. niger enzyme identified in Example 1, was included in the library screen as a positive control for enzyme activity. All candidate enzymes in the library, as well as the enzyme expressed by positive control strain t807925, included an N-terminal MFalpha2 signal peptide (SEQ ID NO: 16) (with a methionine residue added at the N-terminus of the MFalpha2 signal peptide) and a C-terminal HDEL signal peptide (SEQ ID NO: 17).
The library of candidate CBCAS enzymes was assayed for activity in a primary high-throughput screen using the assay described in Example 1. Production of CBCA, THCA, and/or CBDA in the samples was quantified via LC-MS.
Based on results of the primary screen, 70 strains were carried forward to a secondary screen to confirm activity observed in the primary screen. The experimental protocol for the secondary screen was identical to the primary screen, except that additional technical replicates were included per strain, and replicate production cultures for each strain were separately fed 1 mM olivetolic acid or 1 mM divaric acid. All strains were screened in quadruplicate (FIGS. 10A-10C, Tables 10 and 11).

[2] = test system: CBCA, THCA, and CBDA production; assay: In vivo TS activity assay, Example 2 protein engineering of A. niger CBCAS, cultures fed olivetolic acid; settings: for Mean CBCA / Mean CBDA / Mean THCA: secondary screen, olivetolic acid (Table 8); for % CBCA / % CBDA / % THCA: share of terminal cannabinoid product profile
How it was run: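 CBCA, THCA and CBDA were measured by LC-MS in methanol extracts of yeast cultures expressing mutant A. niger CBCAS. Cultures were induced at 20 °C with galactose and fed 1 mM olivetolic acid daily for 4 days, then buffered with 100 mM sodium citrate pH 5.5. Secondary screen: quadruplicates fed 1 mM olivetolic or divaric acid.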

[3] = test system: CBCVA, THCVA, and CBDVA production; assay: In vivo TS activity assay, Example 2 protein engineering of A. niger CBCAS, cultures fed divaric acid; settings: fed divaric acid; for Mean CBCVA / Mean CBDVA / Mean THCVA: S. cerevisiae strains expressing A. niger CBCAS mutants, secondary screen; for % CBCVA / % CBDVA / % THCVA: share of terminal cannabinoid product profile
How it was run: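 Quantification by LC-MS of methanol-extracted production cultures, strains in quadruplicate. Yeast carrying mutant A. niger CBCAS (MFalpha2 N-terminal and HDEL C-terminal signal peptides) were induced 4 days at 20 °C in YEP+4% galactose fed 1 mM divaric acid, re-dosed every 24 h with 2% galactose and 1 mM divaric acid, after 2 days of dextrose preculture at 30 °C; 100 mM citrate pH 5.5 was then added for 2 more days.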

B1: Strain t808200: library TS SEQ ID NO: 164, UniProt A0A3F3PQ52, Aspergillus welwitschiae (protein)
chain: MGNTTSIAGRDCLISALGGNSALAAFPNELLWTADVHEYNLNLPVTPAAITYPETAEQIAGIVKCASDYDYKVQARSGGHSFGNYGLGGADGAVVVDMKHFTQFSMDDETYEAVIGPGTTLNDVDIELYNNGKRAMAHGVCPTIKTGGHFTIGGLGPTARQWGLALDHVEEVEVVLANSSIVRASNTQNQDVFFAVKGAAANFGIVTEFKVRTEPAPGLAVQYSYTFNLGSTAEKAQFVKDWQSFISAKNLTRQFYNNMVIFDGDIILEGLFFGSKEQYDALGLEDHFAPKNPGNILVLTDWLGMVGHALEDTILKLVGNTPTWFYAKSLGFRQDTLIPSAGIDEFFEYIANHTAGTPAWFVTLSLEGGAINDIAEDATAYAHRDVLFWVQLFMVNPLGPISDTTYEFTDGLYDVLARAVPESVGHAYLGCPDPRMEDAQQKYWRTNLPRLQELKEELDPKNTFHHPQGVMPA
[1]
  percentage of CBCA in product profile compared with the A. niger positive control: higher percentage of CBCA

B2: t865727 (protein)
chain: B1 chain with A25V, E57A, I62V, H353A, I374V, L398V
[2]
  Mean CBCA: 16276.39 µg/L
  Mean CBDA: 4297.38 µg/L
  Mean THCA: 1177.87 µg/L
  % CBCA: 74.83%
  % CBDA: 19.76%
  % THCA: 5.42%
[3]
  Mean CBCVA: 1829.32 µg/L
  Mean CBDVA: 0.00 µg/L
  Mean THCVA: 981.31 µg/L
  % CBCVA: 65.09%
  % CBDVA: 0.00%
  % THCVA: 34.91%

B3: t865814 (protein)
chain: B1 chain with A25V, E57A, I62V, D280N, I374V, L398V
modifications: expressed in S. cerevisiae strain
[2]
  Mean CBCA: 20192.93 µg/L
  Mean CBDA: 6751.44 µg/L
  Mean THCA: 1367.48 µg/L
  % CBCA: 71.32%
  % CBDA: 23.85%
  % THCA: 4.83%
[3]
  Mean CBCVA: 3290.24 µg/L
  Mean CBDVA: 0.00 µg/L
  Mean THCVA: 1468.01 µg/L
  % CBCVA: 69.15%
  % CBDVA: 0.00%
  % THCVA: 30.85%

B4: t865809 (protein)
chain: B1 chain with A25V, E57A, I62V, N122G, I374V, L398V
modifications: expressed in S. cerevisiae strain
[2]
  Mean CBCA: 20413.40 µg/L
  Mean CBDA: 6738.75 µg/L
  Mean THCA: 1390.36 µg/L
  % CBCA: 71.52%
  % CBDA: 23.61%
  % THCA: 4.87%
[3]
  Mean CBCVA: 3093.25 µg/L
  Mean CBDVA: 0.00 µg/L
  Mean THCVA: 1662.32 µg/L
  % CBCVA: 65.04%
  % CBDVA: 0.00%
  % THCVA: 34.96%

B5: t865731 (protein)
chain: B1 chain with E57A, I62V, I374V, L398V
[2]
  Mean CBCA: 16059.53 µg/L
  Mean CBDA: 4006.74 µg/L
  Mean THCA: 971.80 µg/L
  % CBCA: 76.34%
  % CBDA: 19.05%
  % THCA: 4.62%
[3]
  Mean CBCVA: 1605.94 µg/L
  Mean CBDVA: 0.00 µg/L
  Mean THCVA: 885.33 µg/L
  % CBCVA: 64.46%
  % CBDVA: 0.00%
  % THCVA: 35.54%

B6: t865772 (protein)
chain: B1 chain with A25V, D35A, E57A, I62V, I374V, L398V
modifications: expressed in S. cerevisiae strain
[2]
  Mean CBCA: 9992.22 µg/L
  Mean CBDA: 3051.02 µg/L
  Mean THCA: 622.72 µg/L
  % CBCA: 73.12%
  % CBDA: 22.33%
  % THCA: 4.56%
[3]
  Mean CBCVA: 1441.55 µg/L
  Mean CBDVA: 0.00 µg/L
  Mean THCVA: 702.24 µg/L
  % CBCVA: 67.24%
  % CBDVA: 0.00%
  % THCVA: 32.76%

B7: t865740 (protein)
chain: B1 chain with A25V, E57A, I62V, N122E, I374V, L398V
[2]
  Mean CBCA: 11837.41 µg/L
  Mean CBDA: 3671.56 µg/L
  Mean THCA: 685.53 µg/L
  % CBCA: 73.10%
  % CBDA: 22.67%
  % THCA: 4.23%
[3]
  Mean CBCVA: 1153.83 µg/L
  Mean CBDVA: 0.00 µg/L
  Mean THCVA: 469.98 µg/L
  % CBCVA: 71.06%
  % CBDVA: 0.00%
  % THCVA: 28.94%

B8: t865721 (protein)
chain: B1 chain with A25V, E57A, I62V, Y256F, I374V, L398V
[2]
  Mean CBCA: 21099.41 µg/L
  Mean CBDA: 5260.35 µg/L
  Mean THCA: 1396.80 µg/L
  % CBCA: 76.02%
  % CBDA: 18.95%
  % THCA: 5.03%
[3]
  Mean CBCVA: 3281.34 µg/L
  Mean CBDVA: 0.00 µg/L
  Mean THCVA: 1482.54 µg/L
  % CBCVA: 68.88%
  % CBDVA: 0.00%
  % THCVA: 31.12%

B9: t865796 (protein)
chain: B1 chain with A25V, E57A, I62V, I374V, L398V, L458W
modifications: expressed in S. cerevisiae strain
[2]
  Mean CBCA: 19975.57 µg/L
  Mean CBDA: 6427.56 µg/L
  Mean THCA: 1436.09 µg/L
  % CBCA: 71.75%
  % CBDA: 23.09%
  % THCA: 5.16%
[3]
  Mean CBCVA: 2570.89 µg/L
  Mean CBDVA: 0.00 µg/L
  Mean THCVA: 1344.71 µg/L
  % CBCVA: 65.66%
  % CBDVA: 0.00%
  % THCVA: 34.34%

B10: t865733 (protein)
chain: B1 chain with A25V, E57A, I62V, I374V, L398T
[2]
  Mean CBCA: 18070.99 µg/L
  Mean CBDA: 6320.33 µg/L
  Mean THCA: 1307.71 µg/L
  % CBCA: 70.32%
  % CBDA: 24.59%
  % THCA: 5.09%
[3]
  Mean CBCVA: 2023.09 µg/L
  Mean CBDVA: 0.00 µg/L
  Mean THCVA: 1202.96 µg/L
  % CBCVA: 62.71%
  % CBDVA: 0.00%
  % THCVA: 37.29%
